How the values were obtained:
purified protein [1] = substrate: COc1cc(/C=C/CO)ccc1O; experiment: purified protein; type: biochemical, Physcomitrium patens; conditions: 0.5 mM H2O2 (saturating), 50 mM sodium acetate pH 5.0, 5-100 μM substrate
purified protein [2] = substrate: COc1cc(/C=C/CO)cc(OC)c1O; experiment: purified protein; type: biochemical, Physcomitrium patens; conditions: 0.5 mM H2O2 (saturating), 50 mM sodium acetate pH 5.0, 1-110 μM substrate

B1: PpaPrx19 (Physcomitrium patens) (protein)
chain: TTDFYAKSCPRIHSIVKAEIKKAVNVEKRMAASLIRLHFHDCFVHGCDGSILLDSIPGMDSEKFAPPNDRSARGYEAIDAIKVALEKACPRTVSCADILAIAYRDSAVEVGLVPEYPVPFGRRDSLRAAPIAEVNLRLPGPDFDISTLKASFANQSLDERDLVALSGAHTIGRVRCQFVRLFLNDPGTNADFKKELARLCAPTVDAFTLQNLDLKTPDKFDNNYYKNLRRGEGIIRSDQVLWSSEGTHQKITKDFAENQENFFRQFIESSIKMGKIKPPPGSPSEIRLNCHQANPRPLIEQVVAVE
notes: native, purified from gametophores (ammonium sulfate, phenyl Sepharose, SP Sepharose); mature secreted protein, 332 aa precursor incl; 26 aa N-terminal signal peptide (predicted); 46 kDa lipase (XP_001755452) co-purified
Km (purified protein [1]): 16.7 µM
kcat (purified protein [1]): 3940 s⁻¹
kcat/Km (purified protein [1]): 2.36e+08 M⁻¹ s⁻¹
Km (purified protein [2]): 20.8 µM
kcat (purified protein [2]): 281 s⁻¹
kcat/Km (purified protein [2]): 1.35e+07 M⁻¹ s⁻¹

Source: article PMC8309402, “Evolutionary Implications of a Peroxidase with High Affinity for Cinnamyl Alcohols from Physcomitrium patens, a Non-Vascular Plant” (Plants, 2021)
